Experimental data published in patent US20150344570A1 (published 2015).

Target: T1, FcγRIIb extracellular domain with C-terminal His tag (human, UniProt P31994 43-217)
T1 construct: extracellular domain; also called FcgRIIb; 2b
T1 sequence (looked up): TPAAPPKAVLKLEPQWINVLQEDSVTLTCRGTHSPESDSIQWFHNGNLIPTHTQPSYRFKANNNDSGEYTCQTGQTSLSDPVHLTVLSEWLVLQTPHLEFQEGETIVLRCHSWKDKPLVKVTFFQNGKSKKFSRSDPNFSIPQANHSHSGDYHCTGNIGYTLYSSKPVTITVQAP
Test: SPR (Biacore), relative binding

B1: GpH7-A5/GpH7-B3 variant P238_19Q/GpL16-k0 (antibody, human IgG1, kappa)
heavy 1: not shown
heavy 2: not shown
light: DIVMTQSPLSLPVTPGEPASISCQASESLVHSNRNTYLHWYLQKPGQSPQLLIYKVSNRFSGVPDRFSGSGSGTDFTLKISRVEAEDVGVYYCSQNTHVPPTFGQGTKVEIERTVAAPSVFIFPPSDEQLKSGTASVVCLLNNFYPREAKVQWKVDNALQSGNSQESVTEQDSKDSTYSLSSTLTLSKADYEKHKVYACEVTHQGLSSPVTKSFNRGEC
notes: also called He Ab P238_19Q
He/Con_2b: 110 % of HeCon Ab GpH7-A5/GpH7-B3/GpL16-k0

B2: GpH7-A5/GpH7-B3 variant P331_06M/GpL16-k0 (antibody, human IgG1, kappa)
heavy 1: not shown
heavy 2: not shown
light: DIVMTQSPLSLPVTPGEPASISCQASESLVHSNRNTYLHWYLQKPGQSPQLLIYKVSNRFSGVPDRFSGSGSGTDFTLKISRVEAEDVGVYYCSQNTHVPPTFGQGTKVEIERTVAAPSVFIFPPSDEQLKSGTASVVCLLNNFYPREAKVQWKVDNALQSGNSQESVTEQDSKDSTYSLSSTLTLSKADYEKHKVYACEVTHQGLSSPVTKSFNRGEC
notes: also called He Ab P331_06M
He/Con_2b: 102 % of HeCon Ab GpH7-A5/GpH7-B3/GpL16-k0

B3: GpH7-A5/GpH7-B3 variant S267_19Q/GpL16-k0 (antibody, human IgG1, kappa)
heavy 1: not shown
heavy 2: not shown
light: DIVMTQSPLSLPVTPGEPASISCQASESLVHSNRNTYLHWYLQKPGQSPQLLIYKVSNRFSGVPDRFSGSGSGTDFTLKISRVEAEDVGVYYCSQNTHVPPTFGQGTKVEIERTVAAPSVFIFPPSDEQLKSGTASVVCLLNNFYPREAKVQWKVDNALQSGNSQESVTEQDSKDSTYSLSSTLTLSKADYEKHKVYACEVTHQGLSSPVTKSFNRGEC
notes: also called He Ab S267_19Q
He/Con_2b: 218 % of HeCon Ab GpH7-A5/GpH7-B3/GpL16-k0

B4: GpH7-A5/GpH7-B3 variant P331_10E/GpL16-k0 (antibody, human IgG1, kappa)
heavy 1: not shown
heavy 2: not shown
light: DIVMTQSPLSLPVTPGEPASISCQASESLVHSNRNTYLHWYLQKPGQSPQLLIYKVSNRFSGVPDRFSGSGSGTDFTLKISRVEAEDVGVYYCSQNTHVPPTFGQGTKVEIERTVAAPSVFIFPPSDEQLKSGTASVVCLLNNFYPREAKVQWKVDNALQSGNSQESVTEQDSKDSTYSLSSTLTLSKADYEKHKVYACEVTHQGLSSPVTKSFNRGEC
notes: also called He Ab P331_10E
He/Con_2b: 116 % of HeCon Ab GpH7-A5/GpH7-B3/GpL16-k0

B5: GpH7-A5/GpH7-B3 variant S267_06M/GpL16-k0 (antibody, human IgG1, kappa)
heavy 1: not shown
heavy 2: not shown
light: DIVMTQSPLSLPVTPGEPASISCQASESLVHSNRNTYLHWYLQKPGQSPQLLIYKVSNRFSGVPDRFSGSGSGTDFTLKISRVEAEDVGVYYCSQNTHVPPTFGQGTKVEIERTVAAPSVFIFPPSDEQLKSGTASVVCLLNNFYPREAKVQWKVDNALQSGNSQESVTEQDSKDSTYSLSSTLTLSKADYEKHKVYACEVTHQGLSSPVTKSFNRGEC
notes: also called He Ab S267_06M
He/Con_2b: 210 % of HeCon Ab GpH7-A5/GpH7-B3/GpL16-k0

B6: GpH7-A5/GpH7-B3 variant P331_15Y/GpL16-k0 (antibody, human IgG1, kappa)
heavy 1: not shown
heavy 2: not shown
light: DIVMTQSPLSLPVTPGEPASISCQASESLVHSNRNTYLHWYLQKPGQSPQLLIYKVSNRFSGVPDRFSGSGSGTDFTLKISRVEAEDVGVYYCSQNTHVPPTFGQGTKVEIERTVAAPSVFIFPPSDEQLKSGTASVVCLLNNFYPREAKVQWKVDNALQSGNSQESVTEQDSKDSTYSLSSTLTLSKADYEKHKVYACEVTHQGLSSPVTKSFNRGEC
notes: also called He Ab P331_15Y
He/Con_2b: 114 % of HeCon Ab GpH7-A5/GpH7-B3/GpL16-k0

B7: GpH7-A5/GpH7-B3 variant S324_06M/GpL16-k0 (antibody, human IgG1, kappa)
heavy 1: not shown
heavy 2: not shown
light: DIVMTQSPLSLPVTPGEPASISCQASESLVHSNRNTYLHWYLQKPGQSPQLLIYKVSNRFSGVPDRFSGSGSGTDFTLKISRVEAEDVGVYYCSQNTHVPPTFGQGTKVEIERTVAAPSVFIFPPSDEQLKSGTASVVCLLNNFYPREAKVQWKVDNALQSGNSQESVTEQDSKDSTYSLSSTLTLSKADYEKHKVYACEVTHQGLSSPVTKSFNRGEC
notes: also called He Ab S324_06M
He/Con_2b: 112 % of HeCon Ab GpH7-A5/GpH7-B3/GpL16-k0

B8: GpH7-A5/GpH7-B3 variant P271_10E/GpL16-k0 (antibody, human IgG1, kappa)
heavy 1: not shown
heavy 2: not shown
light: DIVMTQSPLSLPVTPGEPASISCQASESLVHSNRNTYLHWYLQKPGQSPQLLIYKVSNRFSGVPDRFSGSGSGTDFTLKISRVEAEDVGVYYCSQNTHVPPTFGQGTKVEIERTVAAPSVFIFPPSDEQLKSGTASVVCLLNNFYPREAKVQWKVDNALQSGNSQESVTEQDSKDSTYSLSSTLTLSKADYEKHKVYACEVTHQGLSSPVTKSFNRGEC
notes: also called He Ab P271_10E
He/Con_2b: 109 % of HeCon Ab GpH7-A5/GpH7-B3/GpL16-k0

B9: GpH7-A5/GpH7-B3 variant S239_05P/GpL16-k0 (antibody, human IgG1, kappa)
heavy 1: not shown
heavy 2: not shown
light: DIVMTQSPLSLPVTPGEPASISCQASESLVHSNRNTYLHWYLQKPGQSPQLLIYKVSNRFSGVPDRFSGSGSGTDFTLKISRVEAEDVGVYYCSQNTHVPPTFGQGTKVEIERTVAAPSVFIFPPSDEQLKSGTASVVCLLNNFYPREAKVQWKVDNALQSGNSQESVTEQDSKDSTYSLSSTLTLSKADYEKHKVYACEVTHQGLSSPVTKSFNRGEC
notes: also called He Ab S239_05P
He/Con_2b: 102 % of HeCon Ab GpH7-A5/GpH7-B3/GpL16-k0

B10: GpH7-A5/GpH7-B3 variant S239_03V/GpL16-k0 (antibody, human IgG1, kappa)
heavy 1: not shown
heavy 2: not shown
light: DIVMTQSPLSLPVTPGEPASISCQASESLVHSNRNTYLHWYLQKPGQSPQLLIYKVSNRFSGVPDRFSGSGSGTDFTLKISRVEAEDVGVYYCSQNTHVPPTFGQGTKVEIERTVAAPSVFIFPPSDEQLKSGTASVVCLLNNFYPREAKVQWKVDNALQSGNSQESVTEQDSKDSTYSLSSTLTLSKADYEKHKVYACEVTHQGLSSPVTKSFNRGEC
notes: also called He Ab S239_03V
He/Con_2b: 108 % of HeCon Ab GpH7-A5/GpH7-B3/GpL16-k0

B11: GpH7-A5/GpH7-B3 variant P331_07I/GpL16-k0 (antibody, human IgG1, kappa)
heavy 1: not shown
heavy 2: not shown
light: DIVMTQSPLSLPVTPGEPASISCQASESLVHSNRNTYLHWYLQKPGQSPQLLIYKVSNRFSGVPDRFSGSGSGTDFTLKISRVEAEDVGVYYCSQNTHVPPTFGQGTKVEIERTVAAPSVFIFPPSDEQLKSGTASVVCLLNNFYPREAKVQWKVDNALQSGNSQESVTEQDSKDSTYSLSSTLTLSKADYEKHKVYACEVTHQGLSSPVTKSFNRGEC
notes: also called He Ab P331_07I
He/Con_2b: 114 % of HeCon Ab GpH7-A5/GpH7-B3/GpL16-k0
